Reference: the DeepSol protein solubility set

Experiment: soluble on expression in E. coli; label from the status in PepcDB or PDB records

Sequence	soluble on expression in E. coli
MTNDYQQLNYLVETDDEADIIIANLVKQLNELKEILLSLDNQDLEINQVNHRTTVHNTSSNTSNNSTSNNIADGNYNSNFFHNFSKETLQTQAKRGFLLLERCSLVGLQQLELEYLNVLGRSFESHQDKINFLVNLRDLTNDHLLDTEKIVSTLEQIFNVIGGTEYTPILNSFFNQSLNDPDPIQREIGLKQFVANLRQRFKTLLQKTNNSIQQLEAEIQIPTTHIKSDEVMFGPPDMNERLVLNDSETDAILRSIEAELESALQNKKQVVVTAVPPIAANLATDSISQETLEHNLNNTETVNTTTVTVTSASETQVRKPQISLRPIFQGNFPKRLSREDIQRYAHQLQELEQSNEG	soluble
MTENAEKFLWGVATSAYQIEGATQEDGRGPSIWDAFAQRPGAIRDGSTGEPACDHYRRYEEDIALMQSLGVRAYRFSVAWPRILPEGRGRINPKGLAFYDRLVDRLLASGITPFLTLYHWDLPLALEERGGWRSRETAFAFAEYAEAVARALADRVPFFATLNEPWCSAFLGHWTGEHAPGLRNLEAALRAAHHLLLGHGLAVEALRAAGARRVGIVLNFAPAYGEDPEAVDVADRYHNRFFLDPILGKGYPESPFRDPPPVPILSRDLELVARPLDFLGVNYYAPVRVAPGTGTLPVRYLPPEGPATAMGWEVYPEGLYHLLKRLGREVPWPLYVTENGAAYPDLWTGEAVVEDPERVAYLEAHVEAALRAREEGVDLRGYFVWSLMDNFEWAFGYTRRFGLYYVDFPSQRRIPKRSALWYRERIARAQT	soluble
MRMIFVNLPVKNIEVSKSFFTALGFSFNPEYSDDRTLCMIVEENIFVMLLQEDRFRDFINGDIADAKQSTEVLTCLSAGSREEIDEMIATALASGGSSWKPVQDHGFMYAGSFQDPDGHVWELVHMTGQG	soluble
METEEWFFKGISRKDAERQLLAPGNMLGSFMIRDSETTKGSYSLSVRDYDPRQGDTVKHYKIRTLDNGGFYISPRSTFSTLQELVDHYKKGNDGLCQKLSVPCMSSK	soluble
MSKRKVAIIGSGNIGTDLMIKILRHGQHLEMAVMVGIDPQSDGLARARRMGVATTHEGVIGLMNMPEFADIDIVFDATSAGAHVKNDAALREAKPDIRLIDLTPAAIGPYCVPVVNLEANVDQLNVNMVTCGGQATIPMVAAVSRVARVHYAEIIASIASKSAGPGTRANIDEFTETTSRAIEVVGGAAKGKAIIVLNPAEPPLMMRDTVYVLSDEASQDDIEASINEMAEAVQAYVPGYRLKQRVQFEVIPQDKPVNLPGVGQFSGLKTAVWLEVEGAAHYLPAYAGNLDIMTSSALATAEKMAQSLARKAGEAA	soluble
MTEAMKITLSTQPADARWGEKATYSINNDGITLHLNGADDLGLIQRAARKIDGLGIKHVQLSGEGWDADRCWAFWQGYKAPKGTRKVVWPDLDDAQRQELDNRLMIIDWVRDTINAPAEELGPSQLAQRAVDLISNVAGDRVTYRITKGEDLREQGYMGLHTVGRGSERSPVLLALDYNPTGDKEAPVYACLVGKGITFDSGGYSIKQTAFMDSMKSDMGGAATVTGALAFAITRGLNKRVKLFLCCADNLISGNAFKLGDIITYRNGKKVEVMNTDAEGRLVLADGLIDASAQKPEMIIDAATLTGAAKTALGNDYHALFSFDDALAGRLLASAAQENEPFWRLPLAEFHRSQLPSNFAELNNTGSAAYPAGASTAAGFLSHFVENYQQGWLHIDCSATYRKAPVEQWSAGATGLGVRTIANLLTA	soluble
MSLAQGRQVIGLDIGTTSTIAILVRLPDTVVAVASRPTTLSSPHPGWAEEDPAQWWDNARAVLAELKTTAGESDWRPGGICVTGMLPAVVLLDDRGAVLRPSIQQSDGRCGDEVAELRAEVDSEAFLARTGNGVTQQLVTAKLRWIERHEPAVFGAIATVCGSYDYINMLLTGERVVDRNWALEGGFIDLASGTVEADLVALAHIPPSAVPPAHPTHRVLGAVTAEAAALTGLPTGLPVYGGAADHIASALAAGITRPGDVLLKFGGAGDIIVASATAKSDPRLYLDYHLVPGLYAPNGCMAATGSALNWLAKLLAPEAGEAAHAQLDALAAEVPAGADGLVCLPYFLGEKTPIHDPFASGTFTGLSLSHTRGHLWRALLEAVALAFRHHVAVLDDIGHAPQRFFASDGGTRSRVWMGIMADVLQRPVQLLANPLGSAVGAAWVAAIGGGDDLGWDDVTALVRTGEKITPDPAKAEVYDRLYRDFSALYATLHPFFHRSREGHHHHHH	soluble
MRKSVFVLVFLMASVLFSVELKICYLNEDLLPIVKVTEGRDNPVLEIFEALSSPPEGLKTFVPEGVLRAYFFVGDYLILDFYGEKLKGMNFDSERYFLHQVLYTTFLNVKGVNNVYIIIDGKKRDVLAKHVDIRFSFPREVWEKWPIRLEHHHHHH	not soluble
MSSTLAKIAEIEAEMARTQKNKATAHHLGLLKARLAKLRRELITPKGGGGGGPGEGFDVAKTGDARIGFVGFPSVGKSTLLSNLAGVYSEVAAYEFTTLTTVPGVIRYKGAKIQLLDLPGIIEGAKDGKGRGRQVIAVARTCNLILIVLDVLKPLGHKKIIENELEGFGIRLNSKPPNIGFKKKDKGGINLTATCPQSELDAETVKSILAEYKIHNADVTLRSDATADDLIDVVEGNRVYIPCIYVLNKIDQISIEELDIIYKVPHCVPISAHHRWNFDDLLEKIWDYLKLVRIYTKPKGQLPDYTSPVVLPYSRTTVEDFCMKIHKNLIKEFKYALVWGLSVKHNPQKVGKDHTLEDEDVIQIVKK	soluble
MAHHHHHHMPHIPRNHYLVVHDAIRKLLGPDAQLAAFVKAQHAFQCDMLVNDARTDPEELTRAGARHSGGGIGDDAAAKAGVGELARGLQAVLGICDVVPHTRRVDVIFRDRSLIQLALGAAKRDLPYALETGADVNQEPDWRLRNRLRISLGYDEELFLAQCTRSMNVAARILEKCAFDYARYSALMSTNAAMAAMYEASGQRWQAVLPPVTYWQAHCYSLMKAYPCRHYQQIVATVEHNFAAYYGEFPMTNPYCDGEDLNTIQVVRWLCEAFNAGAAVSHVTSAASSPVTVNEWQTVDCSMPAAMEDGDAEKGAAVMDNMADGRSSQEGRH	not soluble
MSLETMNNKYKIMQLSDLHFGQDLGRCDDTNTSSGEHVDEFKCSSDLKTLKFIEKSIQEENPDLIVITGDLIDIHRSIDYKSIMLKSLQPILAHKIKFIYTFGDEIKDQLTKISIIQFLSTLPNCLNTVPQEVIEGITNYNFQIKQKSSTPSSSSSISVTVLDSEDHLIDDSQMTYLYRINNELLNDYKLLFFHYPLPQFRPKGKFKIVGSYNEKHELDRKTKLKFHDDIISCGYNVISVGHEHENDACLLSSSSSSSNSDKSIWLCYNSITGDSGITKLDKQYVRKMRLFEIDFEKNRILSWKRKEIDNQPFDYQLIYEKPQKEGHHHHHH	soluble
MGSDKIHHHHHHMTEQITEIDTLVVGAGQAGVAMSEHLTRLDIPHLVLEKQGIAQAWRSGRWDSLVANGPAWHDRFPGMVFPDCPPDSFVGKEQVADYFAAYARSFNAPIRTGVEVYSAERLAGRPGFRIDTSQGVIEAQRIVAATGPFQRPVIPAIAPQSPAIQQLHSAHYFNPQQLPEGGVLVIGAGSSGVQIADELQRAGRAVWLSVGAHDRPPRRYRQRDFCWWLGVLGMWDAAANAPGKEHVTIAVSGARGGHTVDFRQLAHQGVTLVGQTRGFDGDKALFHPDLAENIRRGDASYLALLDAADAWVARNGMDLPEEPSAREFLPDPACVTDPLLSLNLAEAGIGTIIWATGYTTDYRWLKVNAFDDAQRPQHHRGVSTEPGVYFLGLPWLSRRGSTFIWGVWHDAKYIADQIAIQRQYQRYQPSC	not soluble
MTIPLWWQNGVIYQIYPKSFQDTTGSGTGDLRGVTQRLDYLQRLGVDAIWLTPFYISPQVDNGYDVANYTAIDPTYGTLDDFDELVAQAKARGIRIILDMVFNHTSTQHAWFREALNKESPYRQFYIWRDGTPDVCPNNWQSKFGGSAWRWHSQSEQYYLHLFAPEQADLNWENPAVRAELKKVCEFWADRGVDGLRLDVVNLIAKDQNFPDDPTGDGRRFYTDGPRAHTFLREMNRDVFTPRNLMTVGEMSSTTLENCQQYAALSGDELSMTFNFHHLKVDYPNGEKWTLAKPDYVALKALFRHWQQGMHNVAWNALFWCNHDQPRIVSRFGDEGEYRVPAAKMLAMALHGMQGTPYIYQGEEIGMTNPHFTRITDYRDVESHNMFAALRAAGRDPDELLAILASKSRDNSRTPMQWDNGKNAGFTQGEPWISLCDNYTEVNVEAALRDENSVFYTYQKLIALRKTQPVLIWGDYQDLLPDSPSVWCYRRQWQGQILLVVANLSNQCQEWHPPHIKGQWQALLHNYGEVASQPAAMTLRPFEAIWWLQR	not soluble
MSLKRNNVNVVNRTKNSNPEFRIPLHYKHKIPFVLSDAIERNHDQDLTAEVHFYLALPPERCRRIYKSRRKALNAMLRAILYHVNVISKQVPISATMLTEYCGLTTISAAGNKSVTRGTRTLAMLRDLGFITYRQCWDRVSRRYFPSAIAVTERLIDLVGICPERWRTELNNKLANYNHKIFKKEGITLNEYDYARNLREDQLKRSYMYHSNRKEIKKKKKEATRLEKLVKIKGENELRHLISRQVSEEFLKGFIPGAQLKDLKKIVDKRINTLKKIAKSLHEGHHHHHH	not soluble
MSLSPNDHCFSSHTETGPRKRNEDFSVYIDDLNSLLTCHHGRISVFGVFDGHMGTSASDYCSFKIFNYLVSNPHFPENIQIALKESFKQVNKGFLTIADVLHINAGTTAGVCVIDDKKITTANIGDTEIMFCKRNHKPLILSNKHSPNNEIEKQRIELAGGKVFYFHGWRVEGLLGVSRSIGDIALKKFVIDEADTNQIERSPDDEFVLIGCDGLWNVISYDFCADMVREYLYTNNYNGVDENGIKKPINKKDIARYLVDLALFKQSLDNVTVSIYFFSKEGHHHHHH	soluble
MGSDKIHHHHHHVLPHQNLSILIFFFTLDKDHFGNEMKNMYSHIIVGAGILGTSTAYHLAKQGANVLLVDRKEAGRATHVAAGIICPWMTQRRNKAWYRLANNGAHYYDKLIPELEALGETTTGYQKVGTIALHETSKIEKMQMIAENRFPEAPAIQRIERLTADQVRSMFPLIEFVEDALFVSGGARVDGRALRAAMERGAIKHAATILEADASLVVVDGHVQGVQIGQDIHYADQVILTAGVWVNELLEPLQTKLDIRAEKGQILHLDISNDQSKEWPVIMGQRGLYLVSIEDGKLALGSTHEKQLDYNLQPTVKGMYALLTRAIPVAPALEEANINEMRVGLRPYTSNSLPVIGRLANHPNVLIANGLGASGLTIGPYLGQELAKLALDQELEIDLNDYLLQ	not soluble
MGSDKIHHHHHHMYDAVIIGGGPGGYVCAIKLAQLGKKVALVEKDALGGTCTNRGCIPTKAMLTVSHLMDEMKEKASKYGLKVSGVEYDVAAIMKHVQKSVMMSRKGIEYLLKKNGVEVFKGTAVVENKNTVVVQETGEKLEAKNLVLAHGSVPSVFSPFDIDGVWTSDDVFNLKEFPKSLVIVGGGVIGVEFATFFGSFGVDVTIVEIAEHILPYEDSDVAEEVKKALKRKGVKILEKTKISSLSKVDDGFEVALENGETLKAEKVLLAAGRKPNIPEDVKALGVKIEKGVVTDSRMRTNVENVYAIGDIRSGIMLAHVAMYEGIVAAKNIAGEEEEMDYSAVPSIIFSSPEVASVGVREKDVNPEEVVISKFPVSANGRARTMLENIGFAKVIADKKDGTVLGMSIVSPSATDMIMEGVIAVKFRMKAEDLEKAIHPHPTLTETILGALEGVSGKPIHL	not soluble
APFTLLYDLLHPYGFNRDQIREVATSLDNPPGASFFSSSHRLLRERDRLTVLPLSPKMEVPELFGLKIGDSFLDLPDGKQLSWQRGTPADLDLEGLRLPNTKLLLPLAFVESLQEELGVRRPQRGDHIHPYGMKGCKTVSRFFIDRHVPRSRREEAWLLCQGTEVVWIMGYAADRRFAIDELSDTEEYLLFSFGL	not soluble
